Tested on: MS2 coat protein
Test: apparent KD of MS2 coat protein; designed switch direction (-1 OFF switch, 1 ON switch): -1; higher = weaker reporter binding
In short: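 Designed RNA switches were transcribed on Illumina chips by stalled E. coli RNA polymerase and titrated with SNAP-549-labelled MS2 coat protein from 0.7 or 1.5 nM, doubling to 3 µM. Step length ran from 0.8–1.5 h at the lowest concentration to 10–20 min at the highest. The apparent KD is the median over clusters for each design, from curve-fitted normalised cluster fluorescence.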

[1] = input ligand: microRNA oligo, concentration not stated
[2] = Eterna round: R95, input ligand: microRNA oligo, concentration not stated
[3] = Eterna round: R95, input ligand: FMN 200 uM
[4] = Eterna round: R95, input ligand: none

Sequence	apparent KD of MS2 coat protein (input ligand: FMN 200 uM) [nM]	apparent KD of MS2 coat protein (input ligand: none) [nM]	apparent KD of MS2 coat protein [1] [nM]	apparent KD of MS2 coat protein [2] [nM]	apparent KD of MS2 coat protein [3] [nM]	apparent KD of MS2 coat protein [4] [nM]
AGGUCACAUGAGGAUCACCCAUGUGAGGAUAUAGACUCAAGAGCUUCGGCUCUCAAGUCUAGAAGGCGCUAUGA [EX1 #50] (Eterna round: R97, puzzle: Exclusion 1)	26.5	28.5	–	–	–	–
AGGUGCUUCUGGAAACAUGAGGAUCACCCAUGUUGAGUUAGCGAGGAUAUCGGUAACCAUUGUUAUGAGAAGGCGCAAACCAGA [Ex NG3 #37] (Eterna round: R96, puzzle: Exclusion NG 3)	19.9	20.2	11.4	–	–	–
AGGUGUAGAGGAUAUCUAUCCUCGCACAUGAGGAUCACCCAUGUCCUGGUCACCAAGGACGGAGAAGGCUACACCA [Omei Ex5 D20] (Eterna round: R97, puzzle: Exclusion 5)	427	773	–	–	–	–
AGUAACAGAGGAUAUACUAUUUUAUGUAUUUAUUAUUUUGAACAUGAGGAUCACCCAUGUAGAAGGCUGAAUAA [JMF 89] (puzzle: Exclusion 2)	–	–	–	23.3	–	–
AGUAACAGAGGAUAUACUAUUUUAUGUGUUUAUUGUUUUAAACAUGAGGAUCACCCAUGUAGAAGGCUGAAUAA [JMF 86] (puzzle: Exclusion 2)	–	–	–	28.4	–	–
AGUAACAGAGGAUAUACUAUUUUAUGUGUUUGUUGUUUUGAACAUGAGGAUCACCCAUGUAGAAGGCUGAAUAA [JMF 96] (puzzle: Exclusion 2)	–	–	–	24.1	–	–
AGUAACAGAGGAUAUACUGUUUUAUGUGUUUGUUAUUUUAAACAUGAGGAUCACCCAUGUAGAAGGCUGAAUGA [JMF 99] (puzzle: Exclusion 2)	–	–	–	24.7	–	–
AGUAACCGUCACGAAAGUGAUGGUUACACAGGCAAAUGUACAUGAGGAUCACCCAUGUCCUCAAUUGCUCGUCUUAU [Sensor 3 - 53] (puzzle: Sensor v3, turn-off variant 2)	–	–	–	181	115	120
AGUAACUAUCACGAAAGUGAUAGUUACACAAGCAGUGAAACAUGAGGAUCACCCAUGUCCUCAUUUGCUCGUCUUAU [Sensor 3 - 25] (puzzle: Sensor v3, turn-off variant 2)	–	–	–	390	53.1	52.2
AGUACAAACACGAAAGUGUUUGUACAAUAAGCUUGUGGAACAUGAGGAUCACCCAUGUCCUCAUAAGCUCGUCUUAU [Mat - Sensor v3 - Turn-off var 2 - D29] (puzzle: Sensor v3, turn-off variant 2)	–	–	–	87.1	15.7	14.5
AGUACUAACACGAAAGUGUUAGUACAAUAAGCUUGUGAAACAUGAGGAUCACCCAUGUCCUCGUAAGCUCGUCUUAU [salish99_TOv2_r3_048] (puzzle: Sensor v3, turn-off variant 2)	–	–	–	620	40	37.7
AGUACUAACACGAAAGUGUUAGUACAAUAAGCUUGUGGUACAUGAGGAUCACCCAUGUCCUCAUAAGCUCGUCUUAU [JL-sv3-2.13 mat747 mod] (puzzle: Sensor v3, turn-off variant 2)	–	–	–	62.2	22.5	20.7
AGUACUAACACGAGAGUGUUAGUACUAUAAGCUUGUGUUACAUGAGGAUCACCCAUGUCCUCAUAAGCUCGUCUUAG [Mat - Sensor v3 - Turn-off var 2 - D67] (puzzle: Sensor v3, turn-off variant 2)	–	–	–	99	39.3	44.6
AGUACUAACACGAGUGUGUUAGUACAAUAAGCUUGUGAAACAUGAGGAUCACCCAUGUCCUCAUAAGCUCGUCUUAU [salish99_TOv2_r3_073] (puzzle: Sensor v3, turn-off variant 2)	–	–	–	516	17.8	15.1
AGUACUAACACGCUAGUGUUAGUACAAUAAGCUUGUGAAACAUGAGGAUCACCCAUGUCCUCAUAAGCUCGUCUUAU [salish99_TOv2_r3_058] (puzzle: Sensor v3, turn-off variant 2)	–	–	–	612	16.4	16.1
AGUACUAACACGGAAGUGUUAGUACUAUAAGCUUGUGUUACAUGAGGAUCACCCAUGUCCUCAUAAGCUCGUCUUAA [Mat - Sensor v3 - Turn-off var 2 - D70] (puzzle: Sensor v3, turn-off variant 2)	–	–	–	127	35.1	36.4
AGUACUAACACGGCAGUGUUAGUACAAUAAGCUUGUGAAACAUGAGGAUCACCCAUGUCCUCAUAAGCUCGUCUUAU [salish99_TOv2_r3_065] (puzzle: Sensor v3, turn-off variant 2)	–	–	–	423	18.6	15.4
AGUACUAACACGGCUGUGUUAGUACAAUAAGCUUGUGAAACAUGAGGAUCACCCAUGUCCUCAUAAGCUCGUCUUAU [salish99_TOv2_r3_078] (puzzle: Sensor v3, turn-off variant 2)	–	–	–	580	18	15.6
AGUACUAACACGGGUGUGUUAGUACAAUAAGCUUGUGAAACAUGAGGAUCACCCAUGUCCUCAUAAGCUCGUCUUAU [salish99_TOv2_r3_075] (Eterna round: R96, puzzle: Sensor v3, turn-off variant 2)	15.3	16.6	503	–	–	–
AGUACUAACACGGGUGUGUUAGUACAAUAAGCUUGUGAAACAUGAGGAUCACCCAUGUCCUCAUAAGCUCGUCUUAU [salish99_TOv2_r3_075] (puzzle: Sensor v3, turn-off variant 2)	–	–	–	926	15.4	14.4
AGUACUACCACGAAAGUGUUAGUACAAUAAGCUUGUGAAACAUGAGGAUCACCCAUGUCCUCAUAAGCUCGUCUUAU [salish99_TOv2_r3_021] (puzzle: Sensor v3, turn-off variant 2)	–	–	–	524	16.7	16.5
AGUACUAUCACGAAAGUGUUAGUACAAUAAGCUUGUGAAACAUGAGGAUCACCCAUGUCCUCAUAAGCUCGUCUUAU [salish99_TOv2_r3_019] (Eterna round: R96, puzzle: Sensor v3, turn-off variant 2)	15.8	17.8	467	–	–	–
AGUACUAUCACGAAAGUGUUAGUACAAUAAGCUUGUGAAACAUGAGGAUCACCCAUGUCCUCAUAAGCUCGUCUUAU [salish99_TOv2_r3_019] (puzzle: Sensor v3, turn-off variant 2)	–	–	–	868	16.9	15.7
AGUACUAUGCGAGCUGACUUGCGUAGUGCAGCAGGUGUAACAUGAGGAUCACCCAUGUCCUCAUUUGCUCGUCUUAA [Mat - Sensor v3 - Turn-off var 2 - D9] (puzzle: Sensor v3, turn-off variant 2)	–	–	–	288	240	235
AGUACUCUCACGAAAGUGAGAGUACAAAAAGCAAGUGAAACAUGAGGAUCACCCAUGUCCUCAUUUGCUCGUCUUAU [Mat - Sensor v2 -ver2- JL mod - D88] (Eterna round: R96, puzzle: Sensor v2, turn-off variant 2)	11.8	14.4	413	–	–	–
AGUAGGUCUACCUUGGUGGAUCUGCAUUUUUGCAGGUGUACAUGAGGAUCACCCAUGUCCUCAUUUGCUCGUCUUAU [JL turnoff v2 99.30] (Eterna round: R96, puzzle: Sensor v3, turn-off variant 2)	555	508	599	–	–	–
AGUAGGUCUACCUUGGUGGAUCUGCAUUUUUGCAGGUGUACAUGAGGAUCACCCAUGUCCUCAUUUGCUCGUCUUAU [JL turnoff v2 99.30] (puzzle: Sensor v3, turn-off variant 2)	–	–	–	629	488	473
AGUAGUAGUGUCCGAUCCUACAUGAGGAUCACCCAUGUAGCUAGACGUGCACGCGAUGCUCGUCAGACUACCAGAUG [salish99_TOv1_r3_046] (puzzle: Sensor v3, turn-off variant 1)	–	–	–	88.7	83.7	129
AGUAUGCGGCAGGAUAUCCAUCCGCGGUGAGGUGGAGAAGGGCUGACAUGAGGAUCACCCAUGUGCGUCCUGUA [salish99_ex6_r4_027] (Eterna round: R97, puzzle: Exclusion 6)	29.4	21	–	–	–	–

Source: the supplement of paper PMC9170038
